This is an account of results in publication PMC12753105.

The target in assay [1] is SARS-CoV-2 N-protein N:G215C (reduced), full length (SARS-CoV-2) (UniProt P0DTC9). Briefly: AUC.
For assay [2] the target is unchanged. Briefly: mass photometry.
Assay [3] deals with SARS-CoV-2 N-protein N:G215C* (oxidized), full length (SARS-CoV-2) (UniProt P0DTC9). Briefly: mass photometry.
In assay [4] the target is SARS-CoV-2 N-protein N:R203K/G204R, full length (SARS-CoV-2) (UniProt P0DTC9). Briefly: mass photometry.
In assay [5] the target is SARS-CoV-2 N-protein Nο (N:P13L/Δ31–33/R203K/G204R), full length (SARS-CoV-2) (UniProt P0DTC9). Briefly: mass photometry.

As a reminder, the Kd is the constant that tells how readily two partners part at equilibrium. A lower Kd goes with a tighter complex. On to “SARS-CoV-2 N-protein N:G215C (reduced), full length (from UniProt P0DTC9 1-419) (natural protein)”, for which, in assay [1], the Kd was 1000 nM. The best-fit effective RNP life-time (with SL7 RNA) in assay [2] came out at 231 s.

Consider “SARS-CoV-2 N-protein N:G215C* (oxidized), full length (from UniProt P0DTC9 1-419) (natural protein)”, for which, in assay [3], the best-fit effective RNP life-time (with SL7 RNA) came to 41.8 s.

As for “SARS-CoV-2 N-protein N:R203K/G204R, full length (from UniProt P0DTC9 1-419) (natural protein)”, the best-fit effective RNP life-time (with SL7 RNA) in assay [4] worked out at 54.6 s.

“SARS-CoV-2 N-protein Nο (N:P13L/Δ31–33/R203K/G204R), full length (from UniProt P0DTC9 1-419) (natural protein)”: in assay [5], the best-fit effective RNP life-time (with SL7 RNA) came out at 58.5 s.
